Measured values from the nanobody polyreactivity screen of Harvey et al. (2022).

Experiment: yeast display, Sf9 membrane polyspecificity reagent, FACS + sequencing; frameworks hold sequencing errors
Summary of the method: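 A synthetic nanobody library was expressed on Saccharomyces cerevisiae BJ5465 by galactose induction for 36–48 hours. The library was stained for 1 hour at 4 °C with 10% biotinylated, detergent-solubilized Sf9 membrane reagent and enriched with streptavidin microbeads before FACS. Low and high (top ~1%) gates were set on anti-HA fluorescence for expression and streptavidin fluorescence for reagent binding, and each polyreactivity label reflects the gate of origin.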

Sequence	polyreactivity (PSR sort gate)
QVQLVESGGGLVQAGGSLRLSCAASGRIFRRYAMGWYRQAPGKERELVASISLSGGSTYYADSVKGRFTISRDNAKNTVYLQMNSLKPEDTAVYYCAAVIRAYATRATYNSWGQGTQVTVSS	high polyreactivity
QVQLVESGGGLVQAGGSLRLSCAASGRIFRRYAMGWYRQAPGKERELVASITWGGSSTSYADSVKGRFTISRDNAKNTVYLQMNSLKPEDTAVYYCNADFPTAIPYGYDYWGQGTQVTVSS	low polyreactivity
QVQLVESGGGLVQAGGSLRLSCAASGRIFRRYAMGWYRQAPGKERELVSAITSGSSTYYADSVKGRFTISRDNPKNTVNLQMISVKPEYSAVYYCAALGYTYKYYSYYWGHGTQVTVSS	high polyreactivity
QVQLVESGGGLVQAGGSLRLSCAASGRIFRRYVMGWYRQAPGKERELVARIRIRDSNTYYADSVKGRCTISRDNAKNTVYLQMNSLKPEDTAVYYCAVVANYVYSKYDYWGQGTQVTVSS	low polyreactivity
QVQLVESGGGLVQAGGSLRLSCAASGRIFRRYVMGWYRQAPGKERELVARIRIRDSNTYYADSVKGRFTISRDNAKNTVYLQMNSLKPEDTAVYYCAVVANYVYSKYDYWGQGTQVTVSS	low polyreactivity
QVQLVESGGGLVQAGGSLRLSCAASGRIFRSNAMGWYRQAPGKERELVAVINSDDSTYYADSVKGRFTISRDNAKNTVYLQMNCLKPEDTAVYYCAAEPQYTRHMDSWGQGTQVTVSS	low polyreactivity
QVQLVESGGGLVQAGGSLRLSCAASGRIFRSNAMGWYRQAPGKERELVAVINSDDSTYYADSVKGRFTISRDNAKNTVYLQMNSLKPEDTAVYYCAAEPQYTRHMDSLGQGTQVTVSS	low polyreactivity
QVQLVESGGGLVQAGGSLRLSCAASGRIFRSYALGWYRQAPGKERELAAAISYGGGSTYYADSVKGRFTISRDNAKNTVYLQMNSLKPEDTAVYYCAARGYSRPMDYWGQGTQVTVSS	high polyreactivity
QVQLVESGGGLVQAGGSLRLSCAASGRIFRSYAMGWYRQAPGKERELVAAITGSTGSTSYADSVKGRFTISRDNAKNTVYLQMNSLKPEDTAGYYCNAEYSSGYGQSHTYFYEYDYWGHGTQVTVSS	low polyreactivity
QVQLVESGGGLVQAGGSLRLSCAASGRIFRVYAMGWYRQAPGKERELVAAISSGGSTNYADSVKGRFTISRDNAKNTVYLQMNSLKPEDTAVYYCAATVRGVGYRYYYWGQGTQVTVSS	high polyreactivity
QVQLVESGGGLVQAGGSLRLSCAASGRIFRVYAMGWYRQAPGKERELVAAISSRGGRTYYADSVKGRFTISRDNAKNTVYLQMNSLKPEDTAVYYCAADGRSCSRTTSRYDYWGQGTQVTVSS	high polyreactivity
QVQLVESGGGLVQAGGSLRLSCAASGRIFRYNAMGWYRQAPGKERELVAAISGTGDRTYYADSVKGRFTISRDNAKNTVYLQMNSLKPEDTAVYYCAARGLFFRNRYGYWGQGTQVTVSS	high polyreactivity
QVQLVESGGGLVQAGGSLRLSCAASGRIFRYNAMGWYRQAPGKERELVAAISRGDGSTYYADSVKGRFTISRDNAKNTVYLQMNILKPEDTAVYYCAAAWSFIYFQHPAFKYDYWGQGTQVTVSS	low polyreactivity
QVQLVESGGGLVQAGGSLRLSCAASGRIFRYNAMGWYRQAPGKERELVAAISWSGGSTYADSVKGRFTISRDNAKNTVYLQMNSLKPEDTAVYYCAADSSDLYVWGYDHWGQGTQVTVSS	low polyreactivity
QVQLVESGGGLVQAGGSLRLSCAASGRIFRYNAMGWYRQAPGKERELVAAISWTVGRTYYADSVKGRFTISRDNAKNTVYLQMNSLKPEDTAVYYCATDVGYYRKYEYYYWGQGTQVTVSS	high polyreactivity
QVQLVESGGGLVQAGGSLRLSCAASGRIFRYNAMGWYRQAPGKERELVAAITNSCSTNYADSVKGRFTISRDNAKNTVYLQMNSMKQEDTAVYYCAARARFYGGRSYDYWGQGTQVTVSS	high polyreactivity
QVQLVESGGGLVQAGGSLRLSCAASGRIFRYNAMGWYRQAPGKERELVAAITSGTGTNYADSVKGRFTISRDNAKNTVYLQMNSLKPEDTAVYYCNKDRKSYRYDYWGQGTQVTVSS	low polyreactivity
